In PMC10811483:
pKd: −log10 of the molar value.

What was measured:
Test in all cases: SPR
[1] = molecular target: Z-M_M8AzK-PyOx
[2] = molecular target: Z-M_H19AzK-PyOx
[3] = molecular target: Z-M_M8AzK
[4] = molecular target: Z-M_H19AzK
[5] = molecular target: Z-M_K33AzK
[6] = molecular target: Z-M_K33AzK-PyOx
[7] = molecular target: Z-M_D37AzK

Q: trastuzumab WT (antibody) was tested. Which pKd [1] did it give?
A: 8.30

Q: What about the pKd [2] of the same substance?
A: 8.31

Q: And the pKd [3]?
A: 8.40

Q: What about the pKd [4] of the same substance?
A: 8.29

Q: What about the pKd [5] of the same substance?
A: 8.31

Q: And the pKd [6]?
A: 8.46

Q: And the pKd [7]?
A: 8.45
